Patent publication US20260234247A1 (published 2026)
Where a chain is given by its changes, count along the chain named.

B1: LK-RB2-24 (antibody, human IgG4 S228P, kappa, V domains shown)
VH: QIQLVQSGPEVKKPGETVKISCKASGYTFTTYGMSWVKQAPGKGLKWMGWLNIYSGVPAYADDFKGRFAFSLESSASTAYLQINNLKNEDTATYFCARRENYDGYGMDYWGQGTSVTVSS
VL: DIVMTQSPATLSVTPGDRVSLSCRASQSISDYLHWYQQKSHESPRLLIKYASQSISGIPSRFSGSGSGSDFTLSINSVEPEDVGVYYCQNGHSFPYTFGGGTKLEIKR
B2: LK-RB1-39 (antibody, human IgG4 S228P, kappa, V domains shown)
VH: EVQLQQSGAELVRPGASVKLSCTASGFNIKDDYVHWVNQRPEQGLEWIGWIDPENGDTGYASKFQDKATITADTSSNTAYLHLSSLTSEDTAVYYCTTTRWTGSYWGQGTTLTVSS
VL: QIVLTQSPAIMSASPGEKVTITCSASSSVNYMHWFQQKPGSSPKLWIYSTANLASGVPARFSGSGSGTSYSLTISRMEAEDAATYYCQQRSSYPPTWTFGGGTKLEIKR
B3: LK-RB2-16 (antibody, human IgG4 S228P, kappa, V domains shown)
VH: QIQLVQSGPELKKPGETVKISCKASGYTFTTYGMGWVKQAPEKGLKWMGWINTNSGAPTYGDDFKGRFAFSLETSASTAYLQINNLKNEDTATYFCAHYGRPWFAYWGQGTLVTVSA
VL: DIQMTQSPASLSASVGETVTITCRASENIYSYLAWYHQKQGESPQLLVYNAKTLAEGVPSRFSGSGSGTQFSLKINSLQPEDFGSYYCQHHYNIPLTFGAGTKLELKR
B4: LK-RB2-8 (antibody, human IgG4 S228P, kappa, V domains shown)
VH: B3 VH with T28S, T30A, T31S, E42G, M48L, N54H, A57V, G61A, A105P
VL: B3 VL with A25T, H37Q, E42K, T53S, K74R, S85T, H90Q, N93E, I94T
B5: LK-RB2-21 (antibody, human IgG4 S228P, kappa, V domains shown)
VH: EVQLVESGGDLVKPGGSLKLSCAASGFTFSSYGMSWVRQTPDKRLEWVATISSGGSYTYYPDSLKGRFTISRDNAKSTLYLQMSSLKSEDTAKYYCARPYYDYIFYAIDYWGQGTSVTVSS
VL: DIQMNQSPSSLSASLGDTITITCHASQNINVWLSWYQQKPGNIPKLLIYKASNLHTGVPSRFSGSGSGTGFTLTISSLQPEDIATYYCQQGQSYPLTFGGGTKLEIKR
B6: LK-RB2-35 (antibody, human IgG4 S228P, kappa, V domains shown)
VH: EVQLQQSGPELVKPGASVKISCKASGYTFTDYNMHWVKQSHGKSLEWIGSIYPYNGGSDYNQKFKSKATLTVDNSSSTAYMELRSLTSEDSAVYYCASELTGLYAMDYWGQGTSVTVSS
VL: B1 VL with N90T
B7: LK-RB2-45 (antibody, human IgG4 S228P, kappa, V domains shown)
VH: QIQLVQSGPELKKPGETVKISCKASGYTFTTYGMSWVKQTPGKGLQWMGWINVYSGVPTYADDFKGRFAFSLEASASTAYLQINNLKNEDTASYFCARRGDYDGHYFDYWGQGTTLTVSS
VL: B1 VL with H34N, A51V, V83I, S93N, Y96L, I106L
B8: LK-RB2-23 (antibody, human IgG4 S228P, kappa, V domains shown)
VH: B7 VH with T40A, Q46K, V53I, A74T, S93T, H105Y
VL: NIVLIQSAATLSVTPGDSVSLSCRASQSLSNGLHWYQQKSHESPRLLIKYGSQSISGIPSRFSGSGSGTDFTLSINSVETEDFGMYFCQQSDSWPHTFGSGTKLEIKR
B9: LK-RB2-22 (antibody, human IgG4 S228P, kappa, V domains shown)
VH: B7 VH with P14T, T40A, Q46K, V53I, A74T, S93T, G100A, H105Y
VL: NIVMTQTPKFLLVSAGDRVTITCRASQSVTNDVAWYQQRPGQSLKLLIYYASNRYTGVPDRFTGSGYGTDFTFTISTVQAEDLAVYFCQQGYSSPFTFGSGTKLEIKR
B10: LK-RB2-33 (antibody, human IgG4 S228P, kappa, V domains shown)
VH: EVQLQQSGVELVRPGALVKLSCKASGFNIKDYYMHWVKQRPEQGLEWIGWIDPEKGDTIYGPKFQGKASITADTSSNTAYLQLSSLTSEDTAVYYCSRGPNYGSSYAFAYWGQGTLVTVSA
VL: DVVMTQSHKFMSTSVGDRVTITCKASQDVSNAVAWYQQKPGQSPKLLIYSASYRYTGVPDRFTGSGSGTDFTFTISSMQAEDLAVYYCQQHYSLPWTFGGGTKLEIKR
B11: LK-RB2-5 (antibody, human IgG4 S228P, kappa, V domains shown)
VH: QIQLVQSGPELKKPGETVKISCKASGYTFTTYGMSWVKQAPGKGLKWMGWINTYSGVPTYADDFKGRFAFSLETSVSTAYLQINNLKNEDTATYFCARRDGYDGGGNFDYWGQGTTLTVSS
VL: B1 VL with S93G, Y96W
B12: LK-RB2-12 (antibody, human IgG4 S228P, kappa, V domains shown)
VH: B7 VH with Q46K, V53I, A69V, A74I, Y80H, S93T, G100K, D103S, Y106C
VL: DIVLTQSPASLAVSPGQRATISCRASESVDTYGISFMHWYQQKPGQPPKLLIYRASNLESGIPARFSGSGSRTDFTLTINPVETDDVAIYYCQQSKKDPYTFGGGTKLEIKR
B13: LK-RB1-59 (antibody, human IgG4 S228P, kappa, V domains shown)
VH: QIQLVQSGPELKKPGETVKISCKASGYTFTTYGMSWVKQAPGKGLKWMGWINTYSGVPTYADDFKGRFAFSLETSASTAYLQINNLKNEDTATYFCARRRIYYGNKGYAMDYWGQGTSVTVSS
VL: DIQMTQSPASLSVSVGETVTITCRASENIYSNLVWYQQKQGKSPQLLVYTATNLADGVPSRFSGSGSGTQFSLKINSLQSEDFGSYYCQHFWGTPWTFGGGTKLEIKR
B14: LK-RB2-8 (antibody, human IgG4 S228P, kappa, V domains shown)
VH: B3 VH with T28S, T30A, T31S, E42G, M48L, N54H, A57V, G61A, A105P
VL: B3 VL with A25T, H37Q, E42K, T53S, K74R, S85T, H90Q, N93E, I94T
B15: 12D12 (antibody, human IgG4 S228P, kappa, V domains shown)
VH: QVQLQQPGAELVKPGASVRMSCKASGYTFTSYWVHWVKQRPGQGLEWIGVIDPSDSYTSYNQNFKGKATLTVDTSSKTAYIHLSSLTSEDSAVYFCARGERYDGDYFAMDYWGQGTSVTVSS
VL: B13 VL with Q3V, V34A, T50A, G66R, F71Y, S85T, G93N, W96R
B16: LK-RB2-24.h2 (antibody, human IgG4, kappa, V domains shown)
VH: QVQLVQSGSELKKPGASVKVSCKASGYTFTTYGMSWVKQAPGQGLKWMGWLNIYSGVPAYADDFKGRFVFSLDTSASTAYLQISSLKAEDTAVYFCARRENYDGYGMDYWGQGTLVTVSS
VL: EIVLTQSPATLSLSPGERATLSCRASQSISDYLHWYQQKPGQAPRLLIKYASQSISGIPSRFSGSGSGTDFTLTISSLEPEDFAVYYCQNGHSFPYTFGGGTKLEIKR
notes: Humanized form of LK-RB2-24
B17: LK-RB2-24.h3 (antibody, human IgG4, kappa, V domains shown)
VH: B16 VH
VL: B16 VL with F83V
notes: Humanized form of LK-RB2-24
B18: LK-RB2-24.h1 (antibody, human IgG4, kappa, V domains shown)
VH: B16 VH
VL: B16 VL with S60A
notes: Humanized form of LK-RB2-24
B19: LK-RB2-2.h1 (antibody, human IgG4, kappa, V domains shown)
VH: EVQLVESGGGLVKPGGSLRLSCAASGFTFSSYAMSWVRQAPGKGLEWVSYISSGGDYFHYADTVKGRFTISRDNAKNSLYLQMNSLRAEDTAVYYCAREGAHYDSSYLAWFAHWGQGTLVTVSS
VL: DIQMTQSPSSVSASVGDRVTITCRASENIYSNLAWYQQKPGKAPKLLIYAATNLAEGVPSRFSGSGSGTDYTLTISSLQPEDFATYYCQQFWDNPLTFGQGTKLEIKR
notes: Humanized form of LK-RB2-2
B20: LK-RB2-2.h3 (antibody, human IgG4, kappa, V domains shown)
VH: B19 VH with S49A, A97T
VL: B19 VL
notes: Humanized form of LK-RB2-2
B21: LK-RB2-2.h2 (antibody, human IgG4, kappa, V domains shown)
VH: B19 VH
VL: B19 VL with I48V
notes: Humanized form of LK-RB2-2

target: T1, human LILRB1 (human, UniProt Q8NHL6 24-458, limits assumed); experiment: Octet off-rate ranking;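 also: antibody dissociation rate constants against cynomolgus LILRB2 plus human LILRB1, LILRB2, LILRA1 and LILRA2, measured on an Octet instrument to rank binding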
T1 construct: also called hLILRB1
T1 sequence (Q8NHL6 24-458 limits assumed): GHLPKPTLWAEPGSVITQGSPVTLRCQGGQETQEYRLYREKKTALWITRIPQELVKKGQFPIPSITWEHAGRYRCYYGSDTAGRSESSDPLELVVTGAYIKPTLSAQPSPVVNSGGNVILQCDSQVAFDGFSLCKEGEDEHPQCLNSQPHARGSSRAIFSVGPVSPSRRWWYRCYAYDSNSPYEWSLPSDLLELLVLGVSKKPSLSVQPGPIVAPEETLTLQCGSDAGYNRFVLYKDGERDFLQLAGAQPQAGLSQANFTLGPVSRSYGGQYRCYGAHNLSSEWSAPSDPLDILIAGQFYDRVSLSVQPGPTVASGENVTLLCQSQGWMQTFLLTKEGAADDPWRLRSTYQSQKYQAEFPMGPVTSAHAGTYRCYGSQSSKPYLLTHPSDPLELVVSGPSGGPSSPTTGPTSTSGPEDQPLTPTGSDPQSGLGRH
Text: (§1) Binding affinity of anti-LILRB1 and anti-LILRB2 antibodies against human LILRB1, LILRB2, LILRA1, LILRA2 and cynomolgus LILRB2 was ranked by measuring dissociation rate constant (Kdis) using the Octet system.

koff [s⁻¹] | Binder
0.000205 | B1
4.64e-05 | B2
0.000238 | B3
4.85e-05 | B4

target: T2, human LILRB2 (human, UniProt Q8N423 22-460, limits assumed); experiment: Octet off-rate ranking;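 also: antibody dissociation rate constants against cynomolgus LILRB2 plus human LILRB1, LILRB2, LILRA1 and LILRA2, measured on an Octet instrument to rank binding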
T2 construct: also called hLILRB2
T2 sequence (Q8N423 22-460 limits assumed): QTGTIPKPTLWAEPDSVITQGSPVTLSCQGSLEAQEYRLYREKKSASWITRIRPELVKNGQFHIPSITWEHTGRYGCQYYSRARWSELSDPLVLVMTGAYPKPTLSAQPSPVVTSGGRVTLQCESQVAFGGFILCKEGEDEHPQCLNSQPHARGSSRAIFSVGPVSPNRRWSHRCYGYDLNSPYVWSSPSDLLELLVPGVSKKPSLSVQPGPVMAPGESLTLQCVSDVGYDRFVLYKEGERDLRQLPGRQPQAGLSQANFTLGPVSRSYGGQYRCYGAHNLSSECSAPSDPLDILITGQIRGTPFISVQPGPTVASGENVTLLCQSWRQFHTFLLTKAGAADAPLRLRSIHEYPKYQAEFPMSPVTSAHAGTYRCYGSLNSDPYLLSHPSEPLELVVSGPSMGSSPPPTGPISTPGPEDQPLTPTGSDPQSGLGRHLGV
Text: as §1

koff [s⁻¹] | Binder
0.000966 | B5
0.0012 | B6
0.000244 | B1
8.84e-05 | B7
0.000876 | B8
0.00126 | B9
0.00153 | B2
5.5e-05 | B3
1e-07 | B4
0.00139 | B10

target: T3, human LILRB1 expressed on CHOK1 cells (CHOK1-hLILRB1) (human, UniProt Q8NHL6 24-650); experiment: FACS binding to CHOK1-hLILRB1 cells
T3 construct: whole, on cells; also called CHOK1-LILRB1
T3 sequence (Q8NHL6 24-650): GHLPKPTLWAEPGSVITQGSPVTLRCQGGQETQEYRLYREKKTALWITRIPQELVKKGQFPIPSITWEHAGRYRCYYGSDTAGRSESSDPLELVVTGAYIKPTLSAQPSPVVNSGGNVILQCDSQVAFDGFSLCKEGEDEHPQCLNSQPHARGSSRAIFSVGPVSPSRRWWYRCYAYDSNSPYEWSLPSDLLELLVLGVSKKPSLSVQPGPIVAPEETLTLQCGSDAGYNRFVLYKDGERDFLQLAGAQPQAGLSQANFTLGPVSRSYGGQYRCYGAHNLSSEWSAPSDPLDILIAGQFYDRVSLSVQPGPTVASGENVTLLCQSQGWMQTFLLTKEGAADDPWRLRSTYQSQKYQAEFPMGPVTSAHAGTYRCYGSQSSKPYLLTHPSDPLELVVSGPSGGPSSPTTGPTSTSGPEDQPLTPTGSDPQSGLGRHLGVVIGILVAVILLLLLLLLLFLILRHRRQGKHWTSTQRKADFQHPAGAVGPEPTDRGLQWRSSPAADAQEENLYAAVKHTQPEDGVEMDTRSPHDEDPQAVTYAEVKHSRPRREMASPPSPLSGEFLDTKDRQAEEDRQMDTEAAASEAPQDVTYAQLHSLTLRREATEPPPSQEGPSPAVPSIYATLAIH

EC50 [nM] | Binder
1.34 | B11
2.34 | B12
0.65 | B13
4.55 | B14

target: T4, human LILRB2 expressed on CHOK1 cells (CHOK1-hLILRB2) (human, UniProt Q8N423 22-597); experiment: FACS binding to CHOK1-hLILRB2 cells
T4 construct: whole, on cells; also called CHOK1-LILRB2
T4 sequence (Q8N423 22-597): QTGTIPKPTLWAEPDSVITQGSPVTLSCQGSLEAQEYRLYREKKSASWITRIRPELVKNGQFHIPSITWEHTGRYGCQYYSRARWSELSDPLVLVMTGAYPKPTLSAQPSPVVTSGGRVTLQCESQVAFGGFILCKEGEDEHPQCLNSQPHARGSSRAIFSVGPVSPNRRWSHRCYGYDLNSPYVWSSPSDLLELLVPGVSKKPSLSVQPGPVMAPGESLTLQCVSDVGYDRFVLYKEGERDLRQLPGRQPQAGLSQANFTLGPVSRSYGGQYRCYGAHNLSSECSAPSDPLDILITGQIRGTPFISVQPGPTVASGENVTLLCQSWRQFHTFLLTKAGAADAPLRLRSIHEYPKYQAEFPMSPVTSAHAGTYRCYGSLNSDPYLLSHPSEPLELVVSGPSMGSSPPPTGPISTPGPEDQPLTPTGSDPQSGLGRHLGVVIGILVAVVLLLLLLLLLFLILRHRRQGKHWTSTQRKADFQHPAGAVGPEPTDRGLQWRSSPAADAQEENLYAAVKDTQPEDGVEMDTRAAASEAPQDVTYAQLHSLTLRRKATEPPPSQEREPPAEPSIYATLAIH

EC50 [nM] | binding result | Binder
0.27 | – | B11
0.16 | – | B12
– | no binding | B13
– | no binding | B15
7.23 | – | B14

target: T5, human LILRB1-his (human, UniProt Q8NHL6 24-458, limits assumed); experiment: SPR (Biacore 8K), antibody captured via Fc, LILRB1-his as analyte, 1:1 model
T5 construct: Analyte of the Biacore run; not shown: His tag
T5 sequence (Q8NHL6 24-458 limits assumed): as the sequence (Q8NHL6 24-458 limits assumed) above

Kd [nM] | koff [s⁻¹] | kon [M⁻¹ s⁻¹] | Binder
31.6 | 0.00582 | 184000 | B16
20.1 | 0.00335 | 167000 | B17
25.1 | 0.00446 | 177000 | B18

target: T6, human LILRB2-his (human, UniProt Q8N423 22-460, limits assumed); experiment: SPR (Biacore 8K), antibody captured via Fc, LILRB2-his as analyte, 1:1 model
T6 construct: Analyte of the Biacore run; not shown: His tag
T6 sequence (Q8N423 22-460 limits assumed): as the sequence (Q8N423 22-460 limits assumed) above

Kd [nM] | koff [s⁻¹] | kon [M⁻¹ s⁻¹] | Binder
1.01 | 0.000871 | 860000 | B16
0.852 | 0.000638 | 749000 | B17
0.836 | 0.000758 | 907000 | B18
0.161 | 0.000123 | 766000 | B19
0.201 | 0.000129 | 642000 | B20
0.208 | 0.00014 | 673000 | B21

target: T3, human LILRB1 expressed on CHOK1 cells …; experiment: cell based RBA, flow cytometry: blocking of HLA-G binding to CHOK1-hLILRB1 cells

EC50 [nM] | Top Inhibition [%] | Binder
2.86 | 70.8 | B11
2.16 | 70.3 | B12
1.61 | 87.3 | B13
1.26 | 89.1 | B15
1.32 | 32.7 | B14
